Values belong to the binder of their own block, whether it stands above or below them.
How the values were obtained:
hTie2 (EGF) = molecular target: T1, hTie2 (EGF) (human, UniProt Q02763 210-344); assay: Luminex bead binding
T1 construct: Domain-deletion construct linked to Luminex beads
Description: (§1) For binding, 25 μl of anti-Tie2 antibody (25 μg/ml) was added to 75 μl of the above created Luminex bead mixture (3×10³ beads per construct) in binding buffer (PBS, 0.05% Tween 20, 1 mg/ml BSA, 0.05% sodium azide) into a 96 well filter plate (Millipore). Incubation was at room temperature (RT) for 90 min or overnight at 4° C. with shaking. The beads were washed 3× with washing buffer (PBS+0.05% Tween 20) resuspended in 100 μl binding buffer containing PE (phycoerythrine)-labeled anti human kappa or PE-labeled anti mouse Fab secondary antibody and incubated at RT for 45 min with shaking. Samples were washed 2× more and binding signal (MFI) for each bead was determined using a Luminex L200 or FLEXMAP3D instrument. Bead linked human Tie2 was used as positive control and bead linked human Tie1 was used to measure family cross-reactivity. In general MFI signals greater than 500 units represent significant binding.

hTie2 (Ig2-EGF) = molecular target: T2, hTie2 (Ig2-EGF) (human, UniProt Q02763 121-344); assay: Luminex bead binding
T2 construct: Domain-deletion construct linked to Luminex beads
T2 sequence (Q02763 other isoform, or with tags, fused parts or gaps limits assumed): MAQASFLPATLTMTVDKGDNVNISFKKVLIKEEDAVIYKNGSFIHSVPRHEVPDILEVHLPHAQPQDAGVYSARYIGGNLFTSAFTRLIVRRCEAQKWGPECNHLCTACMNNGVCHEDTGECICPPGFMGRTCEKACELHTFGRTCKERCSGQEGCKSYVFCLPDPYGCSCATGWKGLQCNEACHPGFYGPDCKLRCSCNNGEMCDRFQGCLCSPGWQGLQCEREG
Description: as §1

hTie2 (Ig1-Ig2-EGF) = molecular target: T3, hTie2 (Ig1-Ig2-EGF) (human, UniProt Q02763 24-344); assay: Luminex bead binding
T3 construct: Domain-deletion construct; also used for H/D exchange
Description: as §1

hTie2 (Ig3-FN) = molecular target: T4, hTie2 (Ig3-FN) (human, UniProt Q02763 350-730); assay: Luminex beads, 25 ug/ml mAb
T4 construct: also called hTie2 (Ig3, FN)-hFc
T4 sequence (Q02763 350-730 limits assumed): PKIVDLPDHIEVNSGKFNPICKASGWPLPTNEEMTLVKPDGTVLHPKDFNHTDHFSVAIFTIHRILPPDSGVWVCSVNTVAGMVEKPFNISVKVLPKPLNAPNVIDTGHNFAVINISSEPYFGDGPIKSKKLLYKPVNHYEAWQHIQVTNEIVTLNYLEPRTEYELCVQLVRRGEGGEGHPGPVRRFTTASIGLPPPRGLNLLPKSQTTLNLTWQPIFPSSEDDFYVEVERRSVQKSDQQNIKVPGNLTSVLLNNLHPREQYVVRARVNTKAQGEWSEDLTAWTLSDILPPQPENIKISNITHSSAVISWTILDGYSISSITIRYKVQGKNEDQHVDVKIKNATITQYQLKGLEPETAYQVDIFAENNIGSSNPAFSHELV
Description: as §1

hTie2-mFc = molecular target: T5, hTie2-mFc (human); assay: Luminex beads, 25 ug/ml mAb
T5 chain: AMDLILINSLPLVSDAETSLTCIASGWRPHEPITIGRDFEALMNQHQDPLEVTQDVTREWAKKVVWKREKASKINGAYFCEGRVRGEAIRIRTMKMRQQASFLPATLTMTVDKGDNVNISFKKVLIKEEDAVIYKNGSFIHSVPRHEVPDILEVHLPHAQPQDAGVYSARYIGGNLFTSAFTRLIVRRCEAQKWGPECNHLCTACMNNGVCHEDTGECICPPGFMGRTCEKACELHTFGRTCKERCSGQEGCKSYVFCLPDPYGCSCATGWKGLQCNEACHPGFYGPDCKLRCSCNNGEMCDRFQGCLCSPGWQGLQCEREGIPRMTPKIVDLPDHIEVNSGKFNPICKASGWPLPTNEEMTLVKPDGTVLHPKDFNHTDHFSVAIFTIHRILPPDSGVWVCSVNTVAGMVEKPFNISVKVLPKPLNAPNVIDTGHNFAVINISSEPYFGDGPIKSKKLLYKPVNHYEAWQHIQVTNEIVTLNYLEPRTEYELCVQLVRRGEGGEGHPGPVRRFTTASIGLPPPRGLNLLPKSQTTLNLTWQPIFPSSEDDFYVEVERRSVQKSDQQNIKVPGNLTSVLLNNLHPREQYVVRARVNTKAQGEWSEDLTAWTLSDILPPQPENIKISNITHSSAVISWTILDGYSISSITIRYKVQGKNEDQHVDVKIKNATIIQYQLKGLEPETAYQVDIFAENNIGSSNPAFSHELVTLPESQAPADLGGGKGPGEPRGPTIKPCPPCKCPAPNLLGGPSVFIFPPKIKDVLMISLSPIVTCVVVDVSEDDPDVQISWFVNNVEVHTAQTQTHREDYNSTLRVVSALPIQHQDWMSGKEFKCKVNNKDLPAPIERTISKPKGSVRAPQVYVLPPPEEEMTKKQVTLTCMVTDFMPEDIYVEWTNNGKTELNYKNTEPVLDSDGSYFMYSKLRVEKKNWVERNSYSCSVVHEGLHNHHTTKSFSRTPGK
Description: as §1

hTie2 (FN) = molecular target: T6, hTie2 (FN) (human, UniProt Q02763 445-730); assay: Luminex beads, 25 ug/ml mAb
T6 construct: also called hTie2 (FN)-hFc
T6 sequence (Q02763 445-730 limits assumed): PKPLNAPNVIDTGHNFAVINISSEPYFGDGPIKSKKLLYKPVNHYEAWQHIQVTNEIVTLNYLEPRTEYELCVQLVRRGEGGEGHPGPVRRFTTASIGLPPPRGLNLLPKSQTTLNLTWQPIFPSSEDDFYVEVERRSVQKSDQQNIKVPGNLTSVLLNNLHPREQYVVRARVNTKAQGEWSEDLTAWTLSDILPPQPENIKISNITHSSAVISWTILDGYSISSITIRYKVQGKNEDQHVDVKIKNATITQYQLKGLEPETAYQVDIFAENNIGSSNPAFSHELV
Description: as §1

T1 sequence (Q02763 other isoform, or with tags, fused parts or gaps limits assumed): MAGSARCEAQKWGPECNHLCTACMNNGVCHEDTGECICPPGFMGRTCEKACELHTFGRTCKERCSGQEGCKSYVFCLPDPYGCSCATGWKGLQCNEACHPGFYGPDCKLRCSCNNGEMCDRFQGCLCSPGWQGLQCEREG

MFI (hTie2 (Ig3-FN)): 3840 MFI
MFI (hTie2-mFc): 2910 MFI
MFI (hTie2 (FN)): 4530 MFI
B1: H1H2339B (antibody, V domains shown)
VH: EVQLVESGGGLVQPGGSLRLSCAASGFTFSSYAMNWVRQAPGKGLEWVSSISGSGGNTYYADSVKGRFTISRDNSKNTLYLQLNSLRAEDTAVYYCAKDHSLSWYRNVFDIWGQGTMVTVSS
VL: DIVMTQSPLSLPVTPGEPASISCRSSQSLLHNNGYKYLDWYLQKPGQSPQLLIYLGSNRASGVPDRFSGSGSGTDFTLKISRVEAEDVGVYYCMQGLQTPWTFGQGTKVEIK
notes: Tested as H1H2339B (human IgG format, H1H prefix)
binding result (hTie2 (EGF)): no binding (tested: MFI >500 = significant binding)
binding result (hTie2 (Ig2-EGF)): no binding (tested: MFI >500 = significant binding)
binding result (hTie2 (Ig1-Ig2-EGF)): no binding (tested: MFI >500 = significant binding)

MFI (hTie2 (Ig3-FN)): 4600 MFI
MFI (hTie2-mFc): 3010 MFI
MFI (hTie2 (FN)): 5150 MFI
B2: H1H2340B (antibody, V domains shown)
VH: EVQLVESGGGLVQPGGSLRLSCAASGFTFSRYWMSWVRQAPGMGLEWVANIKQDGSEKNYVDSVKGRFTVSRDNAKNSLYLQMNSLRAEDTAVYYCASAIFGVVITSYWGQGTLVTVSS
VL: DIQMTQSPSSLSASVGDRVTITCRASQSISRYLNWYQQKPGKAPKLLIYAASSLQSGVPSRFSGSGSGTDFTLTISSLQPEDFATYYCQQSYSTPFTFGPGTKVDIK
notes: Tested as H1H2340B (human IgG format, H1H prefix); also called HIH2340B
binding result (hTie2 (EGF)): no binding (tested: MFI >500 = significant binding)
binding result (hTie2 (Ig2-EGF)): no binding (tested: MFI >500 = significant binding)
binding result (hTie2 (Ig1-Ig2-EGF)): no binding (tested: MFI >500 = significant binding)

Reference: US20170174789A1 (Regeneron, published 2017)
